US20200165354A1 (WUXI BIOLOGICS IRELAND, published 2020)

Key:
[1] = target: human PCSK9 (construct not stated) (human) (UniProt Q8NBP7); test: cell-based or functional assay
[2] = target: human PCSK9 with C-terminal 6-His tag, biotin-labelled (PCSK9-His-biotin) (human) (UniProt Q8NBP7); test: ELISA binding to human PCSK9
[3] = target: human PCSK9 with C-terminal murine Fc, biotin-labelled (PCSK9-mFc-biotin) (human) (UniProt Q8NBP7); test: blocking ELISA, binding of PCSK9 to LDL-R
[4] = target: T1, human PCSK9 (construct not stated) (human, UniProt Q8NBP7 31-692, limits assumed); test: cell-based or functional assay
[5] = target: T1, human PCSK9 (construct not stated); test: SPR Biacore T200, antibody captured by anti-Fc antibody, PCSK9 as analyte, 1:1 fit
Experimental: (§1) Antibody binding affinity to human and rhesus PCSK9 was detected by SPR assay using Biacore T200 (GE). Each antibody was captured on anti-murine IgG Fc antibody (GE) or anti-human IgG Fc antibody (Genway) immobilized CM5 sensor chip (GE). Human or rhesus PCSK9 at different concentrations were injected over the sensor chip at a flow rate of […] for an association phase of 180 s, followed by 1200 s dissociation. The chip was regenerated by 2 M MgCl₂ after each binding cycle.
(§2) The sensorgrams for blank surface and buffer channel are subtracted from the test sensorgrams. The experimental data was fitted by 1:1 model using Langmiur analysis. Molecular weight of 85 KDa was used to calculate the molar concentration of analyte.
Kinetic affinity by SPR: the affinities of selected clones binding to human PCSK9 were measured by SPR assay.

[6] = target: T2, human PCSK9 with C-terminal murine Fc, biotin-labelled (PCSK9-mFc-biotin) (human, UniProt Q8NBP7 31-692, limits assumed, biotin-labelled, site not stated); test: competition ELISA, antibody premixed with PCSK9-mFc-biotin, binding to coated LDL-R
T2 construct: not shown: murine Fc (mFc) fused at the C-terminus
Experimental: Blocking assay by ELISA: Plates (Nunc) were coated with LDL-R overnight at 4° C. Hybridoma supernatants were mixed with 250 ng/ml PCSK9-mFc-biotin and incubated at 4° C. overnight. After blocking and washing, the mixture were added to the plates and incubated for 1 h. The plates were then washed and subsequently incubated with streptavidin-HRP. After washing, TMB substrate was added and the interaction was stopped by 2M HCl. The absorbance at 450 nm was read using a microplate reader (Molecular Device).
(§3) Binding and blocking activities were confirmed using purified antibodies (FIGS. 1 and 2).

[7] = target: T3, human PCSK9 with C-terminal 6-His tag, biotin-labelled (PCSK9-His-biotin) (human, UniProt Q8NBP7 31-692, biotin-labelled, site not stated); test: ELISA, purified antibody on PCSK9-His-biotin captured on streptavidin
T3 construct: Made in HEK293, purified on Ni column
Experimental: Binding assay by ELISA: Plates (Nunc) were coated with Streptavidin at 1 μg/ml overnight at 4° C. After blocking and washing, 250 ng/ml PCSK9-His-biotin was added and incubated for 1 h. Then hybridoma supernatants were transferred to the plates and incubate at room temperature for 1 h. The plates were then washed and subsequently incubated with secondary antibody goat anti mouse-IgG-Fc-HRP (Bethyl) for 1 h. After washing, TMB substrate was added and the interaction was stopped by 2M HCl. The absorbance at 450 nm was read using a microplate reader (Molecular Device).
as §3

[8] = target: T4, rhesus PCSK9-His (Sino Biological) (rhesus monkey, UniProt A8T666 31-692, limits assumed); test: ELISA, rhesus PCSK9-His captured on anti-His antibody
T4 construct: also called rhesus monkey PCSK9; monkey PCSK9
Experimental: ELISA plates (Nunc) were coated with anti-His antibody (Genscript) at 1 μg/ml overnight at 4° C. After blocking and washing, 1 μg/ml rhesus PCSK9-His (Sino Biological) was added and incubated for 1 h. The antibody samples were added to the plates and incubate at room temperature for 1 h. The plates were then washed and subsequently incubated with secondary antibody goat anti mouse-IgG-Fc-HRP (Bethyl) for 45 min. After washing, TMB substrate was added and the interaction was stopped by 2M HCl. The absorbance at 450 nm was read using a microplate reader (Molecular Device).
Binding to monkey PCSK9: the affinity of selected antibodies binding to rhesus monkey PCSK9 was measured by ELISA (see FIG. 4).

[9] = target: T1, human PCSK9 (construct not stated); test: ELISA, biotin-labelled PCSK9 on a streptavidin plate, antibody in human serum, 3 days at 37 C, goat anti-human-HRP, OD450
Experimental: (§4) After incubation at 37° C., samples were rapidly frozen in dry-ice-ethanol bath and kept at −80° C. The samples were rapidly thawed before stability test. The plates were coated with streptavidin in Na₂CO₃/NaHCO₃ (pH 9.2) buffer at 4° C. overnight. The plates were washed with 0.1% Tween-PBS once before being blocked with 2% BSA/PBS. Biotin-labeled PCSK9 was added and incubated for 1 hr. After washing, then diluted serum samples were transferred to the plates and incubated for 1 hr at room temperature. Goat anti-human-HRP antibody were added to the wells and incubated for 1 hr. After washing, TMB substrate was added and the interaction was stopped by 2 M HCl. The absorbance at 450 nm was read using a microplate reader (Molecular Device).
(§5) The antibody binding to human PCSK9 was tested by ELISA after incubation in human serum at 37° C.

[10] = target: T2, human PCSK9 with C-terminal murine Fc, …; test: blocking ELISA, binding of PCSK9 to LDL-R
[11] = target: T5, rhesus (monkey) PCSK9, SPR analyte, construct not stated (rhesus monkey, UniProt A8T666 31-692, limits assumed); test: SPR Biacore, antibody captured, monkey PCSK9 as analyte
T5 construct: also called rhesus PCSK9
Experimental: as §1, §2

[12] = target: T3, human PCSK9 with C-terminal 6-His tag, …; test: ELISA binding to human PCSK9
[13] = target: T1, human PCSK9 (construct not stated); test: ELISA, biotin-labelled PCSK9 on a streptavidin plate, antibody in human serum, 0 days at 37 C, goat anti-human-HRP, OD450
Experimental: as §4, §5

[14] = target: T1, human PCSK9 (construct not stated); test: SPR Biacore, antibody captured, human PCSK9 as analyte
Experimental: as §1, §2

[15] = target: T1, human PCSK9 (construct not stated); test: SPR, human PCSK9
[16] = target: T5, rhesus (monkey) PCSK9, SPR analyte, …; test: SPR, monkey PCSK9
Experimental: as §1, §2
The binding activity of engineered antibody was evaluated by SPR affinity test.

T5 sequence (A8T666 31-692 limits assumed): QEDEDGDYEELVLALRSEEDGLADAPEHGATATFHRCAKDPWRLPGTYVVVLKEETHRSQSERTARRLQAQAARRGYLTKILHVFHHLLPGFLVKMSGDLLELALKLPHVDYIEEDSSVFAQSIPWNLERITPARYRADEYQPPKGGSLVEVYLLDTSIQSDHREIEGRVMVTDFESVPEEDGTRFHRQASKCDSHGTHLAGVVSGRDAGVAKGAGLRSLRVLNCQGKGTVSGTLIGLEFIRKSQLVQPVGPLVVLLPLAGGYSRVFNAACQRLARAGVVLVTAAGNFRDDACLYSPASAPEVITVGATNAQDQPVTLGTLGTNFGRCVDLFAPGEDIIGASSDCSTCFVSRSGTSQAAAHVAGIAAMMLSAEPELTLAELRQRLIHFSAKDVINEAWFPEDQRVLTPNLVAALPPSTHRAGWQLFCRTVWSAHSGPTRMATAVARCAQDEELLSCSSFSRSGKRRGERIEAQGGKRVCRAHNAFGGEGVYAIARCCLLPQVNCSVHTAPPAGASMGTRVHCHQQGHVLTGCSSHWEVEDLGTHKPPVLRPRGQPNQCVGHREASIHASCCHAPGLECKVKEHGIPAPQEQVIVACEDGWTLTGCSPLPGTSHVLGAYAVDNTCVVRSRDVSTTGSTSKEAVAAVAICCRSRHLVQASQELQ
T4 sequence (A8T666 31-692 limits assumed): as above

IC50 (nM), LDL-uptake assay in HepG2 cells [4] [nM]	Kd [5] [nM]	koff [5] [s⁻¹]	kon [5] [M⁻¹ s⁻¹]	IC50 [6] [nM]	EC50 [7] [nM]	Kd [8] [nM]	Kd [11] [nM]	koff [11] [s⁻¹]	kon [11] [M⁻¹ s⁻¹]	Kd [14] [nM]	koff [14] [s⁻¹]	kon [14] [M⁻¹ s⁻¹]	Molecule	further results
													Repatha (evolocumab) (antibody)	IC50 (nM), LDL-uptake assay, HepG2 [1]: 77.6 nM; IC50 (nM), LDL-uptake assay, Huh-7 [1]: 98.2 nM; EC50 [2]: 0.038 nM; IC50 [3]: 2.1 nM
130	1.08	0.000148	137000	8.5	0.14	0.6							2.6.6 (antibody, V domains shown, Mouse monoclonal antibody purified from hybridoma supernatant; also called 2.6.6 (mouse antibody)) VH: QVQLQQPGAEVVKPGASVTVSCKASGYTFTSYWIHWVMQRPGQGLEWIGELNPSDGRTNYNEKFKNKATLTVDTSSSTVYMQLSSLTSEDSAVYYCARSNFYGSSSFANWGQGTLVTVSA VL: EILLTQSPAIIAASPGEKVTITCSASSSVSYMNWYQQKPGSSPILWIYGISNLASGVPARFSGSGSGTSFSFTINNMEAEDVATYYCQQRSSYPPTFGGGTKLEIK	
72.5	0.0531	5.43e-05	1.02e+06	3	0.14	0.5							2.12.12.4 (antibody, V domains shown, Mouse monoclonal antibody purified from hybridoma supernatant; also called parental murine antibody) VH: EVQLQQSGPELVKPGASVKMSCEASGYTFTNYVMHWVKQKPGQGLEWIGYINPYNDYIKYNEKFKGKATLTSDKSSSTTYLEVSSLTSEDSAVYYCGRQRYYGYRPYYAMDYWGQGTSVTVSS VL: NIVLTQSPASLAVSLGQRATISCRASESVDGYGNVFMHWYQQKPGQPPKLLIYLASNLESGVPDRFSGSGSRTDFTLTIDPVEADDAATYYCQQNNKDPWTFGGGTKLEIK	
							0.379	0.000303	800000	0.0271	2.67e-05	984000	2.12.12.4-z4-uIgG4k (antibody, V domains shown, the chains here are derived by undoing them; Human constant region of IgG4 isotype, kappa light chain) VH: QVQLVQSGAEVKKPGSSVKVSCEASGYTFTNYVMHWVRQAPGQGLEWMGYINPYNDYIKYNEKFKGKATITADKSTSTAYMELSSLRSEDTAVYYCGRQRYYGYRPYYAMDYWGQGTLVTVSS VL: DIVLTQSPASLAVSPGQRATITCRASESVDGYGNVFMHWYQQKPGQPPKLLIYLASNLESGVPARFSGSGSGTDFTLTINPVEANDTANYYCQQNNKDPWTFGGGTKVEIK	EC50 (read off the curve) [9]: ~0.07 nM; IC50 [10]: 1.9 nM; EC50 [12]: 0.026 nM; EC50 (read off the curve) [13]: ~0.06 nM
													2.12.12.4-v2-z4-uIgG4k (antibody, V domains shown, Engineered humanized antibody with a human constant region of IgG4 isotype, kappa light chain; also called engineered antibody lead) VH: QVQLVQSGAEVKKPGSSVKVSCEASGYTFTNYVMHWVRQAPGQGLEWMGYINPYNDYIKYNEKFKGKATITADKSTSTAYMELSSLRSEDTAVYYCGRQRYYGYRPYYAMDYWGQGTLVTVSS VL: DIVLTQSPASLAVSPGQRATITCRASESVEGYGNVFMHWYQQKPGQPPKLLIYLASNLESGVPARFSGSGSGTDFTLTINPVEADDTANYYCQQNNKDPWTFGGGTKVEIK	Kd [15]: 0.0423 nM; koff [15]: 4.32e-05 s⁻¹; kon [15]: 1.02e+06 M⁻¹ s⁻¹; Kd [16]: 0.522 nM; koff [16]: 0.000291 s⁻¹; kon [16]: 558000 M⁻¹ s⁻¹
							0.19	3.78e-06	19900	2.11	4.69e-05	22200	2.6.6-z4-uIgG1k (antibody, V domains shown, Humanized antibody of 2.6.6 with a human constant region of IgG1 isotype, kappa light chain) VH: QVQLVQSGAEVKKPGASVKVSCKASGYTFTSYWIHWVRQAPGQGLEWMGELNPSDGRTNYNEKFKNKATMTVDTSTSTVYMELSSLRSEDTAVYYCARSNFYGSSSFANWGQGTLVTVSS VL: DIQMTQSPSSLSASVGDRVTITCSASSSVSYMNWYQQKPGKAPKLLIYGISNLASGVPSRFSGSGSGTDFTFTISSLQPEDIATYYCQQRSSYPPTFGGGTKVEIK	
